Assay results from the nanobody polyreactivity screen of Harvey et al. (2022).

Experiment: yeast display, Sf9 membrane polyspecificity reagent, FACS + sequencing; frameworks hold sequencing errors
How it was run: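 A nanobody's polyreactivity label depends on the gate it was sorted from. Yeast display cells were stained with 10% biotinylated, detergent-solubilized Sf9 membrane reagent for 1 hour at 4 °C, enriched on streptavidin microbeads and sorted by FACS. The low and high (top ~1%) gates were set on anti-HA fluorescence for expression and streptavidin fluorescence for reagent binding.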

Sequence	polyreactivity (PSR sort gate)
QVQLVESGGGLVQAGGRLRLSCAPSGLIFYGYAMGWYRQAPGKERELVAAISGSGGRTYYADSVKGRYTISRDNAKNTVYLEMNSLKPEDSAVYYCAGKVPRFGAPGVNYWGQGTQVTVSS	high polyreactivity
QVQLVESGGGLVQAGGRLRLSCPASGLIFSYYAMGWYRQEPGKERELVAAISRGGSTNYADSVKGRFTISRDNAKNTVYLQMNSLKPEDTAVYYCAARFVLRRDYGYWGQGTQVTVSS	high polyreactivity
QVQLVESGGGLVQAGGRLRLSCPASGRTFPPYAMGWYRQAPGKERELVGAISRRAGTTYYADSVKGRFTISRDNAKNTVYLQMNSLKPEDTAVYYCAALTESSSYGYWGLGTQVTVSS	low polyreactivity
QVQLVESGGGLVQAGGRLRLSSAASGFIFAYNAMGWYRQGPGKERELVASIRTRGGSTYYADSVKGRFTISRDNAKNTVYLQMNSLKPEDTSVYYCAARPFPRRYDYWGQGSQVTVSS	low polyreactivity
QVQLVESGGGLVQAGGRLRLSSAASGFIFYYYAMGWYREAPGKERELVAAISTDGGSTFYADSVKGRFTISRDNAKNTVYLQMNSLKPEDTAVYYCNAPYYGWGYWPLEYIRYEYWGQGTQVTVSS	low polyreactivity
QVQLVESGGGLVQAGGRLRLSSAASGSTFGYYAMGWYRQAPGKERELVAAISAGGGSTYYADSVKGRFTISRDNAKNTVYLQMISLKPEDTAVYYCAARGPHIPVKTYDYWGQGTQVTVSS	high polyreactivity
QVQLVESGGGLVQAGGRLRLTCAASARTIVLNPMGWYRQAPGKERELVAAISSGGSTNYADSVKGRFTISRDNAKNTVYLQMNSLNPEDTAVYYCAGQDVNLYSAYYYWGQGTQVTVSS	low polyreactivity
QVQLVESGGGLVQAGGRLRLTCAASGCTFFTNSMGWYRQAPGKERELFGAITVSGSTYYADSVKGRFTFSRDNAKNTVYLQMNSLNPEDTAVYYCAAVFWRRQYGYYIFTTLDYWGHGTQVTVSS	high polyreactivity
QVQLVESGGGLVQAGGRLRLTCAASGLTFERHAMGWYSQARGKERDVVAAWSGGGTYYADSVKGRFTISRDNAKNTVYLHLNSLKPQDTAVYYCAADYRYYLSIGVNSWGQGTQVTVSS	low polyreactivity
QVQLVESGGGLVQAGGRLRLTCAASGSIFGSYAMGWYRQEPGIERELVAAIRGRGGNTYYADSVKGRFTISRDNAKNTVYLQMNSLKPQDTAVYYCAAQSFAQYGWRYGYWGQGTQVTLSS	high polyreactivity
QVQLVESGGGLVQAGGRLRVSCAASGRTFYYYGMGWYRQAPGKESELVATISWSGGSTYYADSVKGRFTISRDNAKNTVYLQMNSLKPEDTEVYYCAADGQFLYDHIEVDYWGQGTQVTVSS	low polyreactivity
QVQLVESGGGLVQAGGSDRLSCAASGNTFYPNAMGWYRPAPGKERELVAAITTSGGTTYYADSVKGRFTISRDNAKNTVYLQMNSLKPEDTAVYYCAAYWSRDKYDYWGQGTQVTVSS	low polyreactivity
QVQLVESGGGLVQAGGSFRLTCAASGRIFSPNAMGWYRQATGKEREFVAAINDRGGNTYYADSVKGRFTISRDNAKNTVYLQMNSLKPEDTAVYYCAATVTVFYTRYYYWGQGTQVTVSS	high polyreactivity
QVQLVESGGGLVQAGGSHRFSCAASGFTVWEYAMGLYRQAPGKERELVAAISRGTSTYYADSVKGRFTISRDNAKNTVYLQMNSLKPEDTAVYYCAAAPSYYPARHGYWGQGSQVTVSS	low polyreactivity
QVQLVESGGGLVQAGGSHRLICAASGSTFNFNVMGWYRQEPGKERELDAAISSSGGNTYYADSVKGRFTISRDNAKNTVYLQMNSLKPEDTAVYYCADEYEEWYSVFLYDYWGQGTQVTVSS	high polyreactivity
QVQLVESGGGLVQAGGSHRLRCAASGRIFWSNTMGWYRQAPGKERELVAAISGRGGSTYYADSVKGRFTISRDNAKNTVYLQMNSLKPEDTAVYYCAARYPAYYEAYDYWGQGTQVTVSS	low polyreactivity
QVQLVESGGGLVQAGGSHRLRCAAYGFIFIYAMGRYRQAPGKQRELVASIESGVSTDYADSVKGRFTISRDNAKNSVYFQMNSLKQEDTAVYYCAADQWSSLNYDYWGQGSQVTVSS	low polyreactivity
QVQLVESGGGLVQAGGSHRLSCAASGFIFRWYAMGWYRQAPGKERELVAAISRSGDSTYYADSVKGRFTISRDNAKNTVYLQMNSLKPDDTAVYYCAADDRYYTYGYDYWGQGTQVTVSS	low polyreactivity
QVQLVESGGGLVQAGGSHRLSCAASGFTFGRYPMGWYRQAPGKERELVAAISSSGSSTYYSDSVKGRFTISRDNAKNTVYLQMNSLKQEDTAVYYCAAAIYVSDRHTYNYWGQGSQVTVSS	high polyreactivity
QVQLVESGGGLVQAGGSHRLSCAASGFTFTHYPMGWYRQAPGKERELVAAISTSGGSTYYADSVKGRFTISRDNAKNSVYLQMNSLKPEDTAVYYCAARRDGWVQWGYYYWGQGTQVTVSS	low polyreactivity
QVQLVESGGGLVQAGGSHRLSCAASGIIFRGYPMGWYRPAPGIERELVASITRRRGSTRYADSVKGRFTISRDNAKNTVYLQMNSLKPEDTAVYYCAAVGVGKTSTAYGYWGQGTQVTVSS	high polyreactivity
QVQLVESGGGLVQAGGSHRLSCAASGLTFRRNAMGWYRQAPGKERELVAAISGSGGSTYYADSVKGRFTISRDNAKNTVYLQMNSLKPEDTAVYYCAADDGIVAYGYWGQGTQVTVSS	high polyreactivity

Sequence	polyreactivity (PSR sort gate)
QVQLVESGGGLVQAGGSHRLSCAASGLTLQRYTLGSYRQAPGKQSELVAAISRSGGGTYYADSVKGRFTISRDNAKNTVYLQMNSVKPEDTAVYYCAARGYTSYKHFGYWGQGTQVTVSS	high polyreactivity
QVQLVESGGGLVQAGGSHRLSCAASGRIFAHNAMGWYSQAPGKERELVAAITWSGGSTYYADSVKGRFTISRDNAKNTVYLQMNSLKPEDTAVYYCNTDSHGHLYNYWGQGTQVTVSS	low polyreactivity
QVQLVESGGGLVQAGGSHRLSCAASGRIFALNAMGWYRQAPGKERELVDAIDTSSGDTYYADSVKGRFTISRDNAKNTVNLQMNCLKPEDTAVYYCAAEGLSPYAYVFSNYDYWGQGTQVTVSS	low polyreactivity
QVQLVESGGGLVQAGGSHRLSCAASGRIFGTYTMGWYRHAPGKERELVASIRFGGSTYYADSVKGRYTISRDNAKNTVYLQMNSLKPEDTAVYYCNRVYGYNRRYGYWGQGTQVTVSS	high polyreactivity
QVQLVESGGGLVQAGGSHRLSCAASGRIFSDYAMGWYRQAPGKERELVAAITRDGSTNYADSVKGLFTISRDNAKNTVYLQLNSLKPEDTAVYYCAAEGRRGGKDYDYWGQGTQVTVSS	high polyreactivity
QVQLVESGGGLVQAGGSHRLSCAASGRIFSPYAMGWYRRAPGKERELVAAISYDDGITYYADSVKGRFTISRDNAKNTVYLQMNSLKPEDTAVYYCAADCVTRPAGDYWGQGTQVTVSS	low polyreactivity
QVQLVESGGGLVQAGGSHRLSCAASGRIIWWYAMGWYRQAPGKEREFVASISSTGSTSYADSVKGRFTISRDNAKITVYFQMNILKPEDTAVYYCAKEGIRHQDYNLSNDYWGQGTHVTVSS	low polyreactivity
QVQLVESGGGLVQAGGSHRLSCAASGRTFGYYAMGWYRQAPGKEREFVAAISWSGGSTYYADTVKGRFTISRDNAKNTVYLEMNSLKPEYTAVYYCATDTTYYAGSWYGYWGQGTQVTVSS	low polyreactivity
QVQLVESGGGLVQAGGSHRLSCAASGSIFLFNAMGWYRQAPGKERELVAAITSPTARTYYADSVKGRFTISRDIAKNTVYLQMNSLKPEDTAVYYCAARYRYAYGYGRGYSWGQGTQVTVSS	high polyreactivity
QVQLVESGGGLVQAGGSHRLSCAASGSIFNLYTMGWYIQAPGKERELVAAIRWSGGRTYYADSVKGRFTISRDNAKNTVYLQMNSLKAEDTAVYYCAVRRVVARYDHWGQGTQVTVSS	low polyreactivity
QVQLVESGGGLVQAGGSHRLSCAASGSIFPSYAKGWYRQAPGKERELVATIGRGGTTNYADSVKGRFTISRDNAKNTVYLQMNSLKPEDTAVYYCNAERIWRYKYGYDYWGQGTQVTVSS	high polyreactivity
QVQLVESGGGLVQAGGSHRLSCAASGSIFTAYALGWYRQATGKARELVAAIDVSGDSTYYADSVKGRFTISRDNAKKTVYLQMNSLKPEDTAVYYCKAEYRVNKEYDYWGQGTQVTVSS	low polyreactivity
QVQLVESGGGLVQAGGSHRLSCAASGSIFYAYAMGWYRQAPGKERELVAAITGSGGRTYYADSVKGRFTISRDNAKNTVYLQMNSLKPEDTAVYYCNAYYYRGSSYGYWGQGTQVTVSS	high polyreactivity
QVQLVESGGGLVQAGGSHRLSCAASGSIFYYYTMGWYRQAPGKERELVASITGGGSTYYADSVKGRFTISRDHAKNTVYLQMNSLKPEDTAVYYCAAYSLRPRWRREYDYWGQGTQVTVSS	high polyreactivity
QVQLVESGGGLVQAGGSHRLSCAASGSTFDYYAMGWYRQAPGKEREFVASINWNGARTYYADSVKGRFTNSRDNAKNTVYLQMNSLKPEDTAVYYCAKISRTYYRYDYWGQGTQVTVSS	high polyreactivity
QVQLVESGGGLVQAGGSHRLSCAASGSTFRYYPMGWYRQAPGKERELVARITSRAGRTYYADSVKGRFTISRDNAKNTVYLQMNSVKPEDTAVYYCNANRFRRYDWGQGTQVTVSS	high polyreactivity
QVQLVESGGGLVQAGGSHRLSCAASGSTFSWNTMGWYRQAPGKERELVASITRSDGSTYADSEKGRFTISRDNAKNTVYLQMNSLKPEDTAVYYCNADPYLYLYLNYDYWGQGTQVTVSS	low polyreactivity
QVQLVESGGGLVQAGGSHRLSCAASGSTLSSYAMGWYRQAPGKERELVAAISSSSGSTYYADSVKGRFTISRDNAKNTVYLQMNSLKPEDTAVYYCAADFRYWGQGTQVTVSS	low polyreactivity
QVQLVESGGGLVQAGGSHRLSCAASGTTIDYYAMGWYRQAPGKERELVAAISWSGGSTYYADSVKGRFTFSRDNAKNTVYLQMNSLKPEDTAVYYCAADSAFYTGSDYGWSDYDYWGQGTQVTVSS	low polyreactivity
QVQLVESGGGLVQAGGSHRLSCAASGYTFARNAMGCDRQAPGKDRELVAAINWSGTNTYYADSVKGRFTISRDSAMNTVYLQMNSLKPEDTAVYYCAKDLYFSGYEFDYWGQGTQVTVSS	low polyreactivity
QVQLVESGGGLVQAGGSHRLSCAASGYTFARYAMGWYRQAPGKERELVAAISRSGGGTYYADSVKGRFTISRDNAKNTVYLQMNSLKPEDTAVYYCATDRVQGLGRFDYWGQGTQVTVSS	high polyreactivity
